This is an account of results in doi:10.1101/459164.

For experiment [1], the target named is MT145 SOSIP.664 trimer (chimpanzee SIVcpzPtt MT145 Env, wild-type V2) (SIVcpzPtt (chimpanzee SIV), isolate MT145).
The target of experiment [2] is MT145K SOSIP.664 trimer (chimpanzee SIVcpzPtt MT145 Env, Q171K) (SIVcpzPtt (chimpanzee SIV), isolate MT145). Description: cryo-EM structure.

For “MT145 SOSIP.664 trimer (chimpanzee SIVcpzPtt MT145 Env, wild-type V2) (complex)”, in experiment [1], the stoichiometry N – broadly, the number of molecules, sites or subunits per partner or assembly – was determined as 3.

The substance “MT145K SOSIP.664 trimer (chimpanzee SIVcpzPtt MT145 Env, Q171K) (complex)” had a stoichiometry N in experiment [2] of 3.
